In US20150183847A1:

Target: interleukin-1 receptor (human (CHO-derived cells) or murine (EL4 cells); not stated which gave the tables) (UniProt P14778)
Assay: competition with 35S-IL-1Ra on IL-1 receptor cells, Kd=IC50/2

Kd: 0.15 to 0.4 nM
Substance: wild-type human IL-1Ra (from UniProt P18510 26-177)
